Residue numbers refer to the chain shown, from its start.
T1: MBP-WRKY21 (Oryza sativa, UniProt Q5FZT4 1-280)
T1 sequence: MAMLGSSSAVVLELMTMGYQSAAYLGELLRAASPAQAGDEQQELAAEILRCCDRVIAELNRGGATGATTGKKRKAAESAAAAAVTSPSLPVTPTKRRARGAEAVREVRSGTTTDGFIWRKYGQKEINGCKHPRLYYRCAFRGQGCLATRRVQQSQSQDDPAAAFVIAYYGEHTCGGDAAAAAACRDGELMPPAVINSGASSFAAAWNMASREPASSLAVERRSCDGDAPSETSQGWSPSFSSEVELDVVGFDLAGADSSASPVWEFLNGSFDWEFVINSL

B1: F2 (Wz and Wy W-boxes) (dsDNA)
DNA 1: TTTTAATAGATGACGCCGTTGACTTTTTCTTACATATTTGACCATTCGTCTTATCCAAAA
DNA 2: TTTTGGATAAGACGAATGGTCAAATATGTAAGAAAAAGTCAACGGCGTCATCTATTAAAA
B2: F2-m (Wz and Wy mutated) (dsDNA)
DNA 1: B1 DNA 1 with C23A, C42A
DNA 2: B1 DNA 2 with G19T, G38T

Target: T1, MBP-WRKY21
Test: EMSA

| Binder | binding result |
| --- | --- |
| B1 | binds |
| B2 | no binding |

From article PMC7820984
